Measurements: the supplement of paper PMC9112550, “Optimization of the antimicrobial peptide Bac7 by deep mutational scanning” (BMC Biology, 2022)

Tested on: Escherichia coli TOP10
Experiment: shrunken log2 fold change of peptide-encoding DNA abundance (4.5 h post-induction vs induction); higher = less antimicrobial activity (less host growth inhibition)
Settings: time post-induction: 4.5 h; library: site-saturation at positions 5, 18, 19, 20
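Also: peptides expressed intracellularly from a pBAD plasmid library in pooled LB shake-flask culture, induced with 0.3% L-arabinose, DNA abundance read by NGS, three biological replicates, DESeq2 with apeglm shrinkage.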

| Sequence | shrunken log2 fold change |
| --- | --- |
| RRIRPRPPRLPRPRPRPSFQPRP | 0.0876 |
| RRIRVRPPRLPRPRPRPPGMPRP | 0.172 |
| RRIRKRPPRLPRPRPRPGISPRP | 0.249 |
| RRIRLRPPRLPRPRPRPFLHPRP | -0.306 |
| RRIRDRPPRLPRPRPRPMVAPRP | 0.00167 |
| RRIRSRPPRLPRPRPRPHYFPRP | -0.51 |
| RRIRARPPRLPRPRPRPQLTPRP | 0.179 |
| RRIRIRPPRLPRPRPRPWGWPRP | 0.0753 |
| RRIRMRPPRLPRPRPRPRIKPRP | 0.0377 |
| RRIRNRPPRLPRPRPRPCCEPRP | 0.0852 |
| RRIRARPPRLPRPRPRPCQDPRP | -0.163 |
| RRIRMRPPRLPRPRPRPGVNPRP | -0.0818 |
| RRIRMRPPRLPRPRPRPNCCPRP | -0.0306 |
| RRIRTRPPRLPRPRPRPWPHPRP | -0.091 |
| RRIRGRPPRLPRPRPRPPDMPRP | 0.879 |
| RRIRYRPPRLPRPRPRPKKPPRP | 0.00704 |
| RRIRERPPRLPRPRPRPYMTPRP | -0.124 |
| RRIRRRPPRLPRPRPRPLRNPRP | 0.94 |
| RRIRVRPPRLPRPRPRPGVCPRP | 0.186 |
| RRIRDRPPRLPRPRPRPEAQPRP | 1.66 |
| RRIRLRPPRLPRPRPRPRCMPRP | -0.0665 |
| RRIRKRPPRLPRPRPRPAHEPRP | 0.816 |
| RRIRIRPPRLPRPRPRPRDNPRP | -0.348 |
| RRIRWRPPRLPRPRPRPNWNPRP | -0.0303 |
| RRIRRRPPRLPRPRPRPSPCPRP | 0.155 |

| Sequence | shrunken log2 fold change |
| --- | --- |
| RRIRLRPPRLPRPRPRPLDNPRP | -0.293 |
| RRIRNRPPRLPRPRPRPHLFPRP | -0.0208 |
| RRIRRRPPRLPRPRPRPQAVPRP | 0.331 |
| RRIRVRPPRLPRPRPRPVAKPRP | 0.233 |
| RRIRTRPPRLPRPRPRPMSEPRP | -0.00136 |
| RRIRCRPPRLPRPRPRPHMDPRP | -0.329 |
| RRIRYRPPRLPRPRPRPVTLPRP | -0.713 |
| RRIRFRPPRLPRPRPRPWHTPRP | -0.0673 |
| RRIRSRPPRLPRPRPRPAFEPRP | 0.0595 |
| RRIRIRPPRLPRPRPRPAYQPRP | -0.76 |
| RRIRARPPRLPRPRPRPYYPPRP | -0.349 |
| RRIRNRPPRLPRPRPRPLVWPRP | 0.124 |
| RRIRRRPPRLPRPRPRPMTTPRP | 0.0808 |
| RRIRDRPPRLPRPRPRPDAVPRP | 0.585 |
| RRIRDRPPRLPRPRPRPLGPPRP | 0.191 |
| RRIRARPPRLPRPRPRPCHYPRP | -0.00197 |
| RRIRYRPPRLPRPRPRPSPEPRP | -0.458 |
| RRIRLRPPRLPRPRPRPFTKPRP | -0.00525 |
| RRIRIRPPRLPRPRPRPICDPRP | -0.412 |
| RRIRARPPRLPRPRPRPAYFPRP | 0.0133 |
| RRIRARPPRLPRPRPRPVQVPRP | 0.123 |
| RRIRPRPPRLPRPRPRPYNTPRP | -0.928 |
| RRIRMRPPRLPRPRPRPDPDPRP | 0.634 |
| RRIRFRPPRLPRPRPRPGCPPRP | 0.00835 |
| RRIRHRPPRLPRPRPRPARTPRP | 0.19 |

| Sequence | shrunken log2 fold change |
| --- | --- |
| RRIRYRPPRLPRPRPRPDDKPRP | -1.56 |
| RRIRVRPPRLPRPRPRPAMVPRP | 0.118 |
| RRIRWRPPRLPRPRPRPCPRPRP | -0.0457 |
| RRIRNRPPRLPRPRPRPICRPRP | -0.0024 |
| RRIRCRPPRLPRPRPRPCNHPRP | -0.227 |
| RRIRMRPPRLPRPRPRPHYSPRP | -0.624 |
| RRIRYRPPRLPRPRPRPETRPRP | 0.0147 |
| RRIRMRPPRLPRPRPRPIWDPRP | 0.0663 |
| RRIRPRPPRLPRPRPRPHYAPRP | -0.15 |
| RRIRNRPPRLPRPRPRPQRLPRP | 0.0491 |
| RRIRNRPPRLPRPRPRPQLCPRP | -0.00259 |
| RRIRLRPPRLPRPRPRPKIKPRP | -0.36 |
| RRIRDRPPRLPRPRPRPDTLPRP | 0.125 |
| RRIRNRPPRLPRPRPRPHGCPRP | -0.0193 |
| RRIRHRPPRLPRPRPRPRFFPRP | 0.152 |
| RRIRSRPPRLPRPRPRPVRWPRP | 0.893 |
| RRIRHRPPRLPRPRPRPEKTPRP | 0.115 |
| RRIRPRPPRLPRPRPRPYWWPRP | 0.0199 |
| RRIRCRPPRLPRPRPRPPLRPRP | 0.35 |
| RRIRKRPPRLPRPRPRPFKFPRP | -0.0557 |
| RRIRRRPPRLPRPRPRPLHAPRP | 1.06 |
| RRIRDRPPRLPRPRPRPMEPPRP | 0.127 |
| RRIRERPPRLPRPRPRPKEGPRP | -0.129 |
| RRIRFRPPRLPRPRPRPCTDPRP | -0.183 |
| RRIRMRPPRLPRPRPRPKDLPRP | 0.153 |

| Sequence | shrunken log2 fold change |
| --- | --- |
| RRIRVRPPRLPRPRPRPMDLPRP | 0.156 |
| RRIRQRPPRLPRPRPRPECQPRP | -0.0746 |
| RRIRIRPPRLPRPRPRPPAEPRP | 0.583 |
| RRIRNRPPRLPRPRPRPPHRPRP | 0.00305 |
| RRIRSRPPRLPRPRPRPAKNPRP | 0.157 |
| RRIRPRPPRLPRPRPRPTLQPRP | 0.353 |
| RRIRVRPPRLPRPRPRPNHFPRP | -0.346 |
| RRIRGRPPRLPRPRPRPNSLPRP | 0.271 |
| RRIRARPPRLPRPRPRPCFLPRP | -0.24 |
| RRIRIRPPRLPRPRPRPNRVPRP | -0.0802 |
| RRIRARPPRLPRPRPRPCSPPRP | -0.0746 |
| RRIRWRPPRLPRPRPRPEFWPRP | 0.6 |
| RRIRTRPPRLPRPRPRPQTAPRP | -0.0946 |
| RRIRVRPPRLPRPRPRPSEFPRP | -0.233 |
| RRIRFRPPRLPRPRPRPKFYPRP | -0.308 |
| RRIRFRPPRLPRPRPRPSFCPRP | -0.373 |
| RRIRDRPPRLPRPRPRPATTPRP | 0.163 |
| RRIRWRPPRLPRPRPRPSKYPRP | -0.632 |
| RRIRHRPPRLPRPRPRPLYQPRP | -0.112 |
| RRIRERPPRLPRPRPRPSNNPRP | -0.973 |
| RRIRPRPPRLPRPRPRPLTSPRP | -0.125 |
| RRIRKRPPRLPRPRPRPAICPRP | 0.0922 |
| RRIRTRPPRLPRPRPRPADVPRP | -0.391 |
| RRIRCRPPRLPRPRPRPEPDPRP | 0.307 |
| RRIRIRPPRLPRPRPRPLFNPRP | -1.02 |

| Sequence | shrunken log2 fold change |
| --- | --- |
| RRIRSRPPRLPRPRPRPYDHPRP | -0.795 |
| RRIRVRPPRLPRPRPRPIGGPRP | 0.801 |
| RRIRYRPPRLPRPRPRPPLIPRP | -0.185 |
| RRIRCRPPRLPRPRPRPMFVPRP | -0.261 |
| RRIRARPPRLPRPRPRPKCIPRP | 0.0328 |
| RRIRMRPPRLPRPRPRPYFQPRP | -0.759 |
| RRIRHRPPRLPRPRPRPTEYPRP | -0.301 |
| RRIRARPPRLPRPRPRPYVKPRP | -0.539 |
| RRIRLRPPRLPRPRPRPRKPPRP | 0.751 |
| RRIRPRPPRLPRPRPRPVTEPRP | -0.027 |
| RRIRQRPPRLPRPRPRPDKIPRP | -0.00225 |
| RRIRSRPPRLPRPRPRPGELPRP | 0.0807 |
| RRIRDRPPRLPRPRPRPDWFPRP | -0.0209 |
| RRIRSRPPRLPRPRPRPAFIPRP | -0.0885 |
| RRIRARPPRLPRPRPRPDHCPRP | 0.063 |
| RRIRARPPRLPRPRPRPYGYPRP | -0.294 |
| RRIRGRPPRLPRPRPRPHVNPRP | 0.295 |
| RRIRRRPPRLPRPRPRPHWPPRP | 0.312 |
| RRIRERPPRLPRPRPRPQCKPRP | -0.276 |
| RRIRCRPPRLPRPRPRPEECPRP | -0.0128 |
| RRIRLRPPRLPRPRPRPSYPPRP | -0.472 |
| RRIRNRPPRLPRPRPRPYDLPRP | -0.166 |
| RRIRTRPPRLPRPRPRPEQYPRP | -0.0335 |
| RRIRDRPPRLPRPRPRPLGFPRP | -0.0377 |
| RRIRPRPPRLPRPRPRPNISPRP | -0.208 |

| Sequence | shrunken log2 fold change |
| --- | --- |
| RRIRVRPPRLPRPRPRPGWYPRP | 0.0128 |
| RRIRIRPPRLPRPRPRPYYNPRP | -0.679 |
| RRIRYRPPRLPRPRPRPTATPRP | -0.038 |
| RRIRNRPPRLPRPRPRPNEGPRP | 0.000589 |
| RRIRPRPPRLPRPRPRPHDNPRP | -0.347 |
| RRIRDRPPRLPRPRPRPVRLPRP | 0.28 |
| RRIRKRPPRLPRPRPRPNWFPRP | 0.188 |
| RRIRGRPPRLPRPRPRPSWGPRP | 0.0507 |
| RRIRIRPPRLPRPRPRPKIQPRP | -0.196 |
| RRIRLRPPRLPRPRPRPLIGPRP | 0.0224 |
| RRIRFRPPRLPRPRPRPHTAPRP | -0.337 |
| RRIRHRPPRLPRPRPRPMSVPRP | -0.294 |
| RRIRNRPPRLPRPRPRPPGFPRP | 1.54 |
| RRIRARPPRLPRPRPRPLPDPRP | 1.07 |
| RRIRYRPPRLPRPRPRPLHAPRP | 0.000596 |
| RRIRQRPPRLPRPRPRPGTEPRP | 0.119 |
| RRIRKRPPRLPRPRPRPKTIPRP | 0.0745 |
| RRIRMRPPRLPRPRPRPLCFPRP | 0.562 |
| RRIRIRPPRLPRPRPRPIMIPRP | -0.0324 |
| RRIRNRPPRLPRPRPRPMAGPRP | 0.0481 |
| RRIRKRPPRLPRPRPRPPPFPRP | 0.442 |
| RRIRERPPRLPRPRPRPSLAPRP | -0.0635 |
| RRIRGRPPRLPRPRPRPMGCPRP | 0.0963 |
| RRIRDRPPRLPRPRPRPFWSPRP | 0.000201 |
| RRIRERPPRLPRPRPRPPMYPRP | -0.458 |
